Patent US20240141048A1 (published 2024)
Like-named read-outs stand apart in the source and are kept apart here. One block for each binder: values may come before it.

Legend:
Assay in all cases: BLI
[1] = biological target: T1, His-tagged cynomolgus VISTA extracellular domain protein (in house) (cynomolgus, UniProt A0A7N9IB00 33-194)
T1 chain: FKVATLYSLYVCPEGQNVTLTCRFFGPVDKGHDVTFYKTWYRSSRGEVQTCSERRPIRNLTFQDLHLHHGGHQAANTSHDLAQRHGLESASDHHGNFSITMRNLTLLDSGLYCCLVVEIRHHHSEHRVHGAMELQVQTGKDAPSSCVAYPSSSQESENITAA

[2] = biological target: T2, His-tagged human VISTA extracellular domain protein (in house) (UniProt Q9H7M9 33-194)
[3] = biological target: T1, His-tagged cynomolgus VISTA …
[4] = biological target: T2, His-tagged human VISTA extracellular …; remark: listed apart in the source
[5] = biological target: T1, His-tagged cynomolgus VISTA …
[6] = biological target: T2, His-tagged human VISTA extracellular …; remark: listed apart in the source
[7] = biological target: T1, His-tagged cynomolgus VISTA …
[8] = biological target: T2, His-tagged human VISTA extracellular …; remark: listed apart in the source
[9] = biological target: T1, His-tagged cynomolgus VISTA …
[10] = biological target: T2, His-tagged human VISTA extracellular …; remark: listed apart in the source

T2 sequence (Q9H7M9 33-194): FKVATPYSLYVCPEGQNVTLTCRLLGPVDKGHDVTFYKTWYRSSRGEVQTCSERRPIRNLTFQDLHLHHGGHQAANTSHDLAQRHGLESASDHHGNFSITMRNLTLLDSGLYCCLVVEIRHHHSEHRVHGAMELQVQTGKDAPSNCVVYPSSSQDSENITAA

Kd [3]: 6.53 nM
Kd [4]: 0.011 nM
B2: anti-VISTA antibody 20E4 (antibody, V domains shown)
VH: QVQLQQSGAELMKPGASVKISCKATGYTFSSSWVEWVRQRPGHGLEWIGEIFPGSGSTHYNEKFKGKATFTADTSSNTAYLQLSSLTSDDSAVYYCARRPPGWFFDVWGAGTTVTVSS
VL: DIVMTQSHKFMSTSVGDRVSITCKASQDVSTDVAWYQQKPGQSPKLLIYSASYRYTGVPDRFTGSGSGTDFTFTISSVQAEDLAVYYCQQHYSTPWTFGGGTKLEIK

Kd [5]: 3.35 nM
Kd [6]: 4.21 pM
B3: anti-VISTA antibody 17E9 (antibody, V domains shown)
VH: QVQLQQSGAELMKPGASVKISCTATGYTFSSCWIEWVKQRPGHGLEWLGEILPGSDYTNYNEKFKDKATFTADTSSDTAYMQLSSLTSEDSAVYYCARRPPGWYFDVWGAGTAVTVSS
VL: DIVMTQSHKFMSTSVGDRVSITCKASQDVSTDIAWYQQKPGQSPKLLIYSASYRFTGVPDRFTGSGSGTDFTFTISSVQAEDLAVYYCQHQYSTPWTFGGGTKLDIK

The next lines start with the binder.

B1: anti-VISTA antibody 15D11 (antibody, V domains shown)
VH: EVQLQQSGSELVKAGASVKLSCTASGFKIKDTFIHWVKQRPEQGLDWIGRIDPANGNSKYDPKFQGKATITADTSSNTAYLQLSSLTSEDTAVYYCARWPSNWEAMDYWGQGTSVTVSS
VL: QIVLTQSPAIMSASPGEKVTMTCSASSSVSYMYWYQQKPGSSPRLLIYDTSNLASGVPFRFSGSGSGTSYSLTISRMEAEDAATYYCQQWISYPLTFGTGTKLELK
Kd [1]: 5.83 pM
Kd [2]: 12.5 nM

B4: anti-VISTA antibody 16A1 (antibody, V domains shown)
VH: QVQLQQSGAELMKPGASVKISCKATGYTFSSSWIEWVKQRPGHGLEWIGEIFPGSGSLNFNEKFKGKATFTADTSSNTAYLQLSSLTSDDSAVYYCARRPPGWFFDVWGAGTTVTVSS
VL: DIVMTQSHKFMSTSVGDRVSITCKASQDVTTDVAWYQQKPGQSPKLLIYSASYRYTGVPDRFTGSGSGTDFTFTISSVQAEDLTVYYCQQHYSSPWTFGGGTKLEIK
Kd [7]: 2.57 nM
Kd [8]: 2.78 pM

B5: anti-VISTA antibody 9F9 (antibody, V domains shown)
VH: QVQFQQSGAELARPGASVKLSCKASGYTFTGYWMQWVKQRPGQGLEWIGAIYPGDGDTRYSQKFKGKVTLTADKSSSTAYMQLSSLASEDSAVYYCARRDYGAWFAYWGQGTLVTVSA
VL: DIKVTQSPSSMYASLGERVTITCKASQDINSYLSWFQQKPGKSPKTLIYRANRLVDGVPSRFSGSGSGQDYSLTISSLDYEDMGIYYCLQYDEFPYTFGGGTKLEIK
Kd [9]: 7.37 nM
Kd [10]: 2.45 nM
